From patent publication US20030119725A1 (ACTIVE MOTIF, published 2003)
*1 amine or outer side, *2 acyl side, *3 side chain or, on linkers, in order; H or OH if unused. Cysteamide = C(CS[*:3])N[*:1]

B1: Pep-2 (KETWWETWWTEWSQPKKKRKV-cya) (peptide)
peptide: Ac-KETWWETWWTEWSQPKKKRKV-Cysteamide
notes: Synthetic 21-residue peptide: Trp-rich hydrophobic domain, Ser-Gln-Pro spacer, and a Lys-rich domain derived from the SV40 large T antigen NLS; also called Pep-2-cya; peptide vector

Legend:
[1] = target: T1, Pep-A, 32-mer peptide derived from HIV-1 reverse transcriptase; test: intrinsic Trp fluorescence of Pep-2 on binding
T1 construct: also called peptide A

[2] = target: T2, Pep-B, 51-mer peptide derived from human Cdc25C dual-specificity phosphatase; test: intrinsic Trp fluorescence of Pep-2 on binding
T2 construct: also called peptide B

[3] = target: T3, 119 kDa b-galactosidase (β-gal) (UniProt P00722 2-1024 = β-galactosidase); test: intrinsic Trp fluorescence of Pep-2 on binding
T3 construct: also called beta-gal; β-galactosidase
T3 sequence (P00722 2-1024 limits assumed): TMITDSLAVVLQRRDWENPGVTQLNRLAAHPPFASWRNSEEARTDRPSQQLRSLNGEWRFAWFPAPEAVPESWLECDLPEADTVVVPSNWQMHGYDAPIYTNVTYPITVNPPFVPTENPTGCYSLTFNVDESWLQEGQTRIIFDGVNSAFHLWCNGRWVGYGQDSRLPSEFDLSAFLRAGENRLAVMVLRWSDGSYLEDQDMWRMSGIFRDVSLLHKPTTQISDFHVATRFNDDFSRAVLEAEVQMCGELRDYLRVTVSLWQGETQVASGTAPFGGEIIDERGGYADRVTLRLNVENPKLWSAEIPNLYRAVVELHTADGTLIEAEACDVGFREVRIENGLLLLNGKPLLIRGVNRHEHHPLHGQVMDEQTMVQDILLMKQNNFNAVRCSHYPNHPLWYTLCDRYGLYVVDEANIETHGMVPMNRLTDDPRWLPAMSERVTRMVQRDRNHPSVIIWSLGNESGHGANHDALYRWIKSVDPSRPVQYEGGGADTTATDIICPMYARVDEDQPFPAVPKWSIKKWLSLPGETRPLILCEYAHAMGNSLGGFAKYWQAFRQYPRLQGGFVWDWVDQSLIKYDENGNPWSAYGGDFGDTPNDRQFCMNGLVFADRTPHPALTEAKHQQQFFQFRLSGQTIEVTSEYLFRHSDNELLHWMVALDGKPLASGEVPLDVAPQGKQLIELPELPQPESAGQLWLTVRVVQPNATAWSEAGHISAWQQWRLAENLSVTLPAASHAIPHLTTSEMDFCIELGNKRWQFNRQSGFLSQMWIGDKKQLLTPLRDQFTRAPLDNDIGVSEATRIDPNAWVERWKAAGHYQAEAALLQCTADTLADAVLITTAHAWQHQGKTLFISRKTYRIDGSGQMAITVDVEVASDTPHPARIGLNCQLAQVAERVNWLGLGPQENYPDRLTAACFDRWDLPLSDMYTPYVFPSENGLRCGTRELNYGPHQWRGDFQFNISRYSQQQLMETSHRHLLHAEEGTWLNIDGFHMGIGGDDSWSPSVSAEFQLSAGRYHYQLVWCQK

[4] = target: T1, Pep-A, 32-mer peptide derived from …; test: intrinsic Trp fluorescence titration of 1 µM Pep-2
[5] = target: T2, Pep-B, 51-mer peptide derived from …; test: intrinsic Trp fluorescence titration of 1 µM Pep-2
[6] = target: T3, 119 kDa b-galactosidase (β-gal); test: intrinsic Trp fluorescence titration of 1 µM Pep-2
[7] = target: the molecule itself; test: intrinsic tryptophan fluorescence against peptide concentration

Row | Binder | blue shift of the fluorescence emission maximum [1] | blue shift of the fluorescence emission maximum [2] | blue shift of the fluorescence emission maximum [3] | Kd [4] | concentration of partner at saturation [4] | saturating quenching of intrinsic tryptophan fluorescence [4] | Kd [5] | concentration of partner at saturation [5] | saturating quenching of intrinsic tryptophan fluorescence [5] | Kd [6] | concentration of partner at saturation [6] | saturating quenching of intrinsic tryptophan fluorescence [6] | binding result [7]
1 | B1 | 10 nm | 10 nm | 10 nm | ~120 nM | ~200 nM | 36% | ~120 nM | ~200 nM | 36% | ~120 nM | ~50 nM | 65% | no binding (tested: up to a millimolar concentration)
2 | GALFLGFLGAAGSTMGAWSQPKSKRKV [MPG peptide vector] |  |  |  |  |  |  |  |  |  |  |  |  | no binding
